B1: PDE8B_HUMAN (protein, UniProt O95263 1-885, looked up)
High affinity cAMP-specific …: MGCAPSIHVSQSGVIYCRDSDESSSPRQTTSVSQGPAAPLPGLFVQTDAADAIPPSRASGPPSVARVRRARTELGSGSSAGSAAPAATTSRGRRRHCCSSAEAETQTCYTSVKQVSSAEVRIGPMRLTQDPIQVLLIFAKEDSQSDGFWWACDRAGYRCNIARTPESALECFLDKHHEIIVIDHRQTQNFDAEAVCRSIRATNPSEHTVILAVVSRVSDDHEEASVLPLLHAGFNRRFMENSSIIACYNELIQIEHGEVRSQFKLRACNSVFTALDHCHEAIEITSDDHVIQYVNPAFERMMGYHKGELLGKELADLPKSDKNRADLLDTINTCIKKGKEWQGVYYARRKSGDSIQQHVKITPVIGQGGKIRHFVSLKKLCCTTDNNKQIHKIHRDSGDNSQTEPHSFRYKNRRKESIDVKSISSRGSDAPSLQNRRYPSMARIHSMTIEAPITKVINIINAAQENSPVTVAEALDRVLEILRTTELYSPQLGTKDEDPHTSDLVGGLMTDGLRRLSGNEYVFTKNVHQSHSHLAMPITINDVPPCISQLLDNEESWDFNIFELEAITHKRPLVYLGLKVFSRFGVCEFLNCSETTLRAWFQVIEANYHSSNAYHNSTHAADVLHATAFFLGKERVKGSLDQLDEVAALIAATVHDVDHPGRTNSFLCNAGSELAVLYNDTAVLESHHTALAFQLTVKDTKCNIFKNIDRNHYRTLRQAIIDMVLATEMTKHFEHVNKFVNSINKPMAAEIEGSDCECNPAGKNFPENQILIKRMMIKCADVANPCRPLDLCIEWAGRISEEYFAQTDEEKRQGLPVVMPVFDRNTCSIPKSQISFIDYFITDMFDAWDAFAHLPALMQHLADNYKHWKTLDDLKCKSLRLPSDS
B2: BAG2_HUMAN (protein, UniProt O95816 2-211, looked up)
BAG family molecular …: AQAKINAKANEGRFCRSSSMADRSSRLLESLDQLELRVEALREAATAVEQEKEILLEMIHSIQNSQDMRQISDGEREELNLTANRLMGRTLTVEVSVETIRNPQQQESLKHATRIIDEVVNKFLDDLGNAKSHLMSLYSACSSEVPHGPVDQKFQSIVIGCALEDQKKIKRRLETLLRNIENSDKAIKLLEHSKGAGSKTLQQNAESRFN

Tested on: B55α interactors
Experiment: MS analysis of B55α WT, V228A, I284A, S287A and D340A immunopurifications
Format: binding, human
Conditions: log2 ratio of interactor abundance, 4 replicates each, normalised to bait B55α; for log2_ratio_D340_WT: B55α D340A vs WT immunopurification; for log2_ratio I284_WT: B55α I284A vs WT immunopurification; for log2_ratio S287_WT: B55α S287A vs WT immunopurification; for log2_ratio V228_WT: B55α V228A vs WT immunopurification
Procedure: Standard cloning techniques were used throughout. Point mutations were introduced by whole plasmid polymerase chain reaction (PCR). All constructs were fully sequenced. Synthetic DNA was purchased from GeneArt, Life Technologies and cloned into pcDNA5/FRT/TO (Invitrogen) expression vector containing YFP, resulting in the indicated YFP fusion proteins. These constructs were transiently transfected into HeLa cells 24 hours before harvesting cells. Cells were lysed in lysis buffer [50 mM tris-HCl (pH 7.5), 50 mM NaCl, 1 mM EDTA, 1 mM […], and 0.1% NP-40]. Complexes were immunoprecipitated at 4°C in lysis buffer with green fluorescent protein (GFP)–Trap (ChromoTek) and washed in lysis buffer. Precipitated protein complexes were washed three times in lysis buffer, eluted in 2× SDS sample buffer, and subjected to Western blotting or MS as indicated.
Pull-downs were analyzed on a Q-Exactive Plus quadrupole or Fusion Orbitrap Lumos mass spectrometer (Thermo Fisher Scientific) equipped with Easy-nLC 1000 or […] (Thermo Fisher Scientific) and nanospray source (Thermo Fisher Scientific).
Static modifications included carbamidomethylcysteine, and variable modifications included oxidized methionine and STY phosphorylation. Searches were filtered using orthogonal measures including mass measurement accuracy (±3 parts per million), Xcorr for charges from +2 to +4, and dCn targeting a <1% false discovery rate at the peptide level. Quantification of LC-MS/MS spectra was performed using MassChroQ ([57]) and the iBAQ method ([58]). All data were analyzed using R 4.3.0. Missing values were imputed from a normal distribution. […] In each dataset, the abundance of the protein of interest was normalized to be equal across all samples. Statistical analyses were done using a two-tailed Student’s t test.

| Molecule | log2_ratio_D340_WT | log2_ratio I284_WT | log2_ratio S287_WT | log2_ratio V228_WT |
| --- | --- | --- | --- | --- |
| B1 | 3.81 | 0.83 | 4.46 | 5.00 |
| B2 | -0.69 | -0.54 | 0.19 | -0.43 |
